Values quoted from earlier work as cited in publication PMC3931689.

Biological target: Protein phosphatase 1 (Mus musculus) (UniProt P62137)
Chain of UniProt P62137 (P62137 2-330): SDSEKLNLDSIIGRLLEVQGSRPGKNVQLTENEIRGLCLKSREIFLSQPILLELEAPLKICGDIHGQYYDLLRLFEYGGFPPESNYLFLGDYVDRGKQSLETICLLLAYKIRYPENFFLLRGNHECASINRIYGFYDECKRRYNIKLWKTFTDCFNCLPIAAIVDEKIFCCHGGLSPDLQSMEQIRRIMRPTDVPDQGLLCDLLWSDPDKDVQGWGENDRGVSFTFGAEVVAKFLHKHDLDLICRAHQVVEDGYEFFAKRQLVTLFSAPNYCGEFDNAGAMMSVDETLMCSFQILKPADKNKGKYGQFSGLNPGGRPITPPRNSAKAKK

- Ki: 1 nM
Substance: Inhibitor-1 (from UniProt Q9ERT9)
